# Data reported in paper PMC10578478.
# Numbering of substitutions follows the chain as printed.
# T1: Pla1-Y86D (Schizosaccharomyces pombe (fission …, UniProt Q10295 1-566, Y86D))
# T1 sequence: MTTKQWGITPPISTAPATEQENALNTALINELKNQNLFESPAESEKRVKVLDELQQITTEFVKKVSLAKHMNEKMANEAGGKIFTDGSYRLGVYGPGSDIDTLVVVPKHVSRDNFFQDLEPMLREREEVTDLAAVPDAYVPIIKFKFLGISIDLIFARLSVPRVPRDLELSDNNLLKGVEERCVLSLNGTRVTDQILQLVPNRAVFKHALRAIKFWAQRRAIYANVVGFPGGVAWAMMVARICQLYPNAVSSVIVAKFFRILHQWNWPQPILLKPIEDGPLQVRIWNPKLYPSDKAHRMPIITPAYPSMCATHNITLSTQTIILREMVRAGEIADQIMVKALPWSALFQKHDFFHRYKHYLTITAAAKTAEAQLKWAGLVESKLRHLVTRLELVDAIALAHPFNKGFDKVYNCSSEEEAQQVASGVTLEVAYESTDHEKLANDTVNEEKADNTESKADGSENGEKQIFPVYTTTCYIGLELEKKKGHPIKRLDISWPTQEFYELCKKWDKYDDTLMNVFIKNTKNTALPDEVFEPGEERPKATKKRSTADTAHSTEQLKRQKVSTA
# T2: Pla1 poly(A) polymerase wild-type (Schizosaccharomyces pombe (fission …, UniProt Q10295 1-566))
# T2 sequence: T1 sequence with D86Y
# B1: 12-mer RNA primer (ssRNA)
# RNA: UUUCUGUGGCUA
# Tests used:
# [1] = molecular target: T1, Pla1-Y86D; assay: fluorescence polarization
# [2] = molecular target: T2, Pla1 poly(A) polymerase wild-type; assay: fluorescence polarization
binder,measurement,setting,value
B1,binding result,[1],no binding
same,Kd,[2],~456 nM
